Laboratory results as given in IntAct's records for PubMed 20802513.

B1: Focal adhesion kinase 1 (Gallus gallus (Chicken)), Q00944 (parent)
chain: MAAAYLDPNLNHTPSSSAKTHLGTGMERSPGAMERVLKVFHYFENSSEPTTWASIIRHGDATDVRGIIQKIVDCHKVKNVACYGLRLSHLQSEEVHWLHLDMGVSNVREKFELAHPPEEWKYELRIRYLPKGFLNQFTEDKPTLNFFYQQVKNDYMLEIADQVDQEIALKLGCLEIRRSYGEMRGNALEKKSNYEVLEKDVGLRRFFPKSLLDSVKAKTLRKLIQQTFRQFANLNREESILKFFEILSPVYRFDKECFKCALGSSWIISVELAIGPEEGISYLTDKGANPTHLADFNQVQTIQYSNSEDKDRKGMLQLKIAGAPEPLTVTAPSLTIAENMADLIDGYCRLVNGATQSFIIRPQKEGERALPSIPKLANNEKQGVRSHTVSVSETDDYAEIIDEEDTYTMPSTRDYEIQRERIELGRCIGEGQFGDVHQGIYMSPENPAMAVAIKTCKNCTSDSVREKFLQEALTMRQFDHPHIVKLIGVITENPVWIIMELCTLGELRSFLQVRKFSLDLASLILYAYQLSTALAYLESKRFVHRDIAARNVLVSATDCVKLGDFGLSRYMEDSTYYKASKGKLPIKWMAPESINFRRFTSASDVWMFGVCMWEILMHGVKPFQGVKNNDVIGRIENGERLPMPPNCPPTLYSLMTKCWAYDPSRRPRFTELKAQLSTILEEEKLQQEERMRMESRRQVTVSWDSGGSDEAPPKPSRPGYPSPRSSEGFYPSPQHMVQPNHYQVSGYSGSHGIPAMAGSIYPGQASLLDQTDSWNHRPQEVSAWQPNMEDSGTLDVRGMGQVLPTHLMEERLIRQQQEMEEDQRWLEKEERFLVMKPDVRLSRGSIEREDGGLQGPAGNQHIYQPVGKPDHAAPPKKPPRPGAPHLGSLASLNSPVDSYNEGVKIKPQEISPPPTANLDRSNDKVYENVTGLVKAVIEMSSKIQPAPPEEYVPMVKEVGLALRTLLATVDESLPVLPASTHREIEMAQKLLNSDLAELINKMKLAQQYVMTSLQQEYKKQMLTAAHALAVDAKNLLDVIDQARLKMISQSRPH

Variants of: B1
Conditions: with pgfrb_human PDGFRB

| effect of a mutation on the interaction | Variant |
| --- | --- |
| disrupting interaction | Y5F;Y194F |
